Data from PMC12828022 (Nature Communications, 2025).
Positions count from the first letter of the chain named. Names may count otherwise.

T1: ACT1 residues 372-574 (wild type) (human, UniProt O43734-1 372-574)
T1 sequence: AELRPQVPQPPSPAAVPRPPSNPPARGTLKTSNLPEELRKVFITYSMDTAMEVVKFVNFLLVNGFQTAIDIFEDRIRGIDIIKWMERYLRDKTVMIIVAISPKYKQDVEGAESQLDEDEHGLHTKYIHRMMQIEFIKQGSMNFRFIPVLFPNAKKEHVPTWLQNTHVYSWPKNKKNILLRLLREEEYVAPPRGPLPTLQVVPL

T2: IL-17RA residues 361-866 (SEFIR domain and SEFEX, as part of the IL-17RB-RA fusion) (human, UniProt Q96F46-1 361-866)
T2 sequence: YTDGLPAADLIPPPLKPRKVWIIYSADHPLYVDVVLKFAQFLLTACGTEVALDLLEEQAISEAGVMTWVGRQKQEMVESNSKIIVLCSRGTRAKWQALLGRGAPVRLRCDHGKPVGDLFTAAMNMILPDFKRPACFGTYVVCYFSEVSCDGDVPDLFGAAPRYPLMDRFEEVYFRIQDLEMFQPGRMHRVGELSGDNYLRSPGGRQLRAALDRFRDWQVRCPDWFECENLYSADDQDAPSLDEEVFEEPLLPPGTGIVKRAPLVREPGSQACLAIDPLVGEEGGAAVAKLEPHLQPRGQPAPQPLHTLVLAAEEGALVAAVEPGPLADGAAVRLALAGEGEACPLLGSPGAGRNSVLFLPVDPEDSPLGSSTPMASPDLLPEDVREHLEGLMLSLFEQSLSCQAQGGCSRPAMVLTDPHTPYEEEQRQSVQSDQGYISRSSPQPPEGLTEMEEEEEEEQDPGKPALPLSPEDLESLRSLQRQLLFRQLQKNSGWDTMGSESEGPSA

B1: IL-17RC-RA fusion (IL-17RC residues 510-705, 3x(GGGS) linker, IL-17RA residues 361-866) (other)
chain: ARGRAALLLYSADDSGFERLVGALASALCQLPLRVAVDLWSRRELSAQGPVAWFHAQRRQTLQEGGVVVLLFSPGAVALCSEWLQDGVSGPGAHGPHDAFRASLSCVLPDFLQGRAPGSYVGACFDRLLHPDAVPALFRTVPVFTLPSQLPDFLGALQQPRAPRSGRLQERAEQVSRALQPALDSYFHPPGTPAPGGGGSGGGSGGGSYTDGLPAADLIPPPLKPRKVWIIYSADHPLYVDVVLKFAQFLLTACGTEVALDLLEEQAISEAGVMTWVGRQKQEMVESNSKIIVLCSRGTRAKWQALLGRGAPVRLRCDHGKPVGDLFTAAMNMILPDFKRPACFGTYVVCYFSEVSCDGDVPDLFGAAPRYPLMDRFEEVYFRIQDLEMFQPGRMHRVGELSGDNYLRSPGGRQLRAALDRFRDWQVRCPDWFECENLYSADDQDAPSLDEEVFEEPLLPPGTGIVKRAPLVREPGSQACLAIDPLVGEEGGAAVAKLEPHLQPRGQPAPQPLHTLVLAAEEGALVAAVEPGPLADGAAVRLALAGEGEACPLLGSPGAGRNSVLFLPVDPEDSPLGSSTPMASPDLLPEDVREHLEGLMLSLFEQSLSCQAQGGCSRPAMVLTDPHTPYEEEQRQSVQSDQGYISRSSPQPPEGLTEMEEEEEEEQDPGKPALPLSPEDLESLRSLQRQLLFRQLQKNSGWDTMGSESEGPSA
B2: IL-17RB residues 328-484 (SEFIR domain, as part of the IL-17RB-RA fusion) (domain or fragment)
chain: LLPPIKVLVVYPSEICFHHTICYFTEFLQNHCRSEVILEKWQKKKIAEMGPVQWLATQKKAADKVVFLLSNDVNSVCDGTCGKSEGSPSENSQDLFPLAFNLFCSDLRSQIHLHKYVVVYFREIDTKDDYNALSVCPKYHLMKDATAFCAELLHVKQ
B3: ACT1 residues 372-574 Y558F (domain or fragment)
chain: T1 sequence with Y187F
B4: IL-17RB-RA fusion (IL-17RB residues 328-484, 16-residue linker, IL-17RA residues 361-866) (other)
chain: LLPPIKVLVVYPSEICFHHTICYFTEFLQNHCRSEVILEKWQKKKIAEMGPVQWLATQKKAADKVVFLLSNDVNSVCDGTCGKSEGSPSENSQDLFPLAFNLFCSDLRSQIHLHKYVVVYFREIDTKDDYNALSVCPKYHLMKDATAFCAELLHVKQGGGSGGGSGGGSGGGSYTDGLPAADLIPPPLKPRKVWIIYSADHPLYVDVVLKFAQFLLTACGTEVALDLLEEQAISEAGVMTWVGRQKQEMVESNSKIIVLCSRGTRAKWQALLGRGAPVRLRCDHGKPVGDLFTAAMNMILPDFKRPACFGTYVVCYFSEVSCDGDVPDLFGAAPRYPLMDRFEEVYFRIQDLEMFQPGRMHRVGELSGDNYLRSPGGRQLRAALDRFRDWQVRCPDWFECENLYSADDQDAPSLDEEVFEEPLLPPGTGIVKRAPLVREPGSQACLAIDPLVGEEGGAAVAKLEPHLQPRGQPAPQPLHTLVLAAEEGALVAAVEPGPLADGAAVRLALAGEGEACPLLGSPGAGRNSVLFLPVDPEDSPLGSSTPMASPDLLPEDVREHLEGLMLSLFEQSLSCQAQGGCSRPAMVLTDPHTPYEEEQRQSVQSDQGYISRSSPQPPEGLTEMEEEEEEEQDPGKPALPLSPEDLESLRSLQRQLLFRQLQKNSGWDTMGSESEGPSA

Key:
[1] = target: T1, ACT1 residues 372-574 (wild type); experiment: negative-stain EM
[2] = target: T2, IL-17RA residues 361-866 (SEFIR domain …); experiment: cryo-EM structure
[3] = target: T1, ACT1 residues 372-574 (wild type); experiment: SEC

| Binder | binding result [2] | other results |
| --- | --- | --- |
| B1 |  | binding result [1]: binds |
| B2 | binds |  |
| B3 | binds |  |
| B4 |  | binding result [3]: binds |
